Measured values reported in patent US20120058906A1 (published 2012).
Positions count from the first letter of the chain named.

How the values were obtained:
[1] = biological target: T1, rHuman P-Cadherin/Fc Chimera, CF (R&D Systems Cat#861-PC) (human, UniProt P22223 108-654); experiment: ECL (MSD multi-spot), antigen on plate, Fab 50 nM
T1 construct: Bought Fc chimera; also called CDH3; not shown: Fc of the bought chimera

[2] = biological target: T2, rHuman Erythropoietin R/Fc Chimera, CF (R&D Systems Cat#963-ER) (human, UniProt P19235 25-250); experiment: ECL (MSD multi-spot), antigen on plate, Fab 50 nM
T2 construct: Bought Fc chimera; also called EPO R/Fc; Epo R; not shown: Fc of the bought chimera
T2 sequence: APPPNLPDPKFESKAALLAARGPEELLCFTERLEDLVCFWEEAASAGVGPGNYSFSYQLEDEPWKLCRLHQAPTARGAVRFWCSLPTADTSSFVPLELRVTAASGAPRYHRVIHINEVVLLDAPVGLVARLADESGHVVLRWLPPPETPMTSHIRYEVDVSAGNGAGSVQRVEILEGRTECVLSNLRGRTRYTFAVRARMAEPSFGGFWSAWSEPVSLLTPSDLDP

[3] = biological target: T3, rHuman EGF R/Fc Chimera, CF (R&D Systems Cat#344-ER) (human, UniProt P00533 25-645); experiment: ECL (MSD multi-spot), antigen on plate, Fab 50 nM
T3 construct: Bought Fc chimera; also called ErbB-1; not shown: Fc of the bought chimera

[4] = biological target: T4, rHuman IGF-1 sR (insulin-like growth factor-1 soluble receptor), CF (R&D Systems Cat#391-GR) (human, UniProt P08069 31-932); experiment: ECL (MSD multi-spot), antigen on plate, Fab 50 nM;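 further: blank spot per well as comparator with Hit at signal to blank ratio of 4 or more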
T4 construct: Bought soluble receptor; also called IGF-R1

[5] = biological target: T1, rHuman P-Cadherin/Fc Chimera, CF (R&D …); experiment: ECL (MSD multi-spot), antigen on plate, Fab 50 nM; remark: listed apart in the source
[6] = biological target: T2, rHuman Erythropoietin R/Fc Chimera, CF …; experiment: ECL (MSD multi-spot), antigen on plate, Fab 50 nM; remark: listed apart in the source
[7] = biological target: T5, rHuman ErbB2/Fc Chimera, CF (R&D Systems Cat#1129-ER) (human, UniProt P04626 23-652); experiment: ECL (MSD multi-spot), antigen on plate, Fab 50 nM;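 further: blank spot per well as comparator with Hit at signal to blank ratio of 4 or more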
T5 construct: Bought Fc chimera; also called HER2/neu; not shown: Fc of the bought chimera

[8] = biological target: T6, rHuman HGF R/c-MET/Fc Chimera, CF (R&D Systems Cat#358-MT/CF) (human, UniProt P08581 25-932); experiment: ECL (MSD multi-spot), antigen on plate, Fab 50 nM;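 further: blank spot per well as comparator with Hit at signal to blank ratio of 4 or more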
T6 construct: Bought Fc chimera; also called HGF R/Fc; not shown: Fc of the bought chimera

[9] = biological target: T7, rHuman Notch-1/Fc Chimera, CF (R&D Systems Cat#3647-TK) (human, UniProt P46531 19-526); experiment: ECL (MSD multi-spot), antigen on plate, Fab 50 nM;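 further: blank spot per well as comparator with Hit at signal to blank ratio of 4 or more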
T7 construct: Bought Fc chimera; not shown: Fc of the bought chimera

[10] = biological target: T8, rHuman CD44/Fc Chimera, CF (R&D Systems Cat#3660-CD) (human, UniProt P16070 21-220); experiment: ECL (MSD multi-spot), antigen on plate, Fab 50 nM
T8 construct: Bought Fc chimera; not shown: Fc of the bought chimera

[11] = biological target: T9, rHuman Erythropoietin R/Fc Chimera, CF (R&D Systems Cat#963-ER) (human, UniProt P19235 25-250); experiment: ECL (MSD multi-spot), antigen spotted on plate; Fab 88.1 nM; blank spot 301
T9 construct: Bought reagent; also called EPO R/Fc; Epo R; Fc part of the bought chimera not given
T9 sequence: T2 sequence

[12] = biological target: T10, Recombinant Human DLL4 (R&D Systems Cat#1506-D4/CF) (human, UniProt Q9NR61 27-524); experiment: as above
T10 construct: Bought reagent; also called delta-like protein 4

[13] = biological target: T11, rHuman ErbB2/Fc Chimera, CF (R&D Systems Cat#1129-ER) (human, UniProt P04626 23-652); experiment: as above
T11 construct: Bought reagent; also called HER2/neu; human epidermal growth factor 2 receptor; Fc part of the bought chimera not given

[14] = biological target: T12, rHuman EGF R/Fc Chimera, CF (R&D Systems Cat#344-ER) (human, UniProt P00533 25-645); experiment: as above
T12 construct: Bought reagent; also called epidermal growth factor receptor; Fc part of the bought chimera not given

[15] = biological target: T13, rHuman HGF R/c-MET/Fc Chimera, CF (R&D Systems Cat#358-MT/CF) (human, UniProt P08581 25-932); experiment: as above
T13 construct: Bought reagent; also called HGF R/Fc; hepatocyte growth factor receptor; Fc part of the bought chimera not given

[16] = biological target: T14, rHuman Notch-1/Fc Chimera, CF (R&D Systems Cat#3647-TK) (human, UniProt P46531 19-526); experiment: as above
T14 construct: Bought reagent; Fc part of the bought chimera not given

[17] = biological target: T15, rHuman CD44/Fc Chimera, CF (R&D Systems Cat#3660-CD) (human, UniProt P16070 21-220); experiment: as above
T15 construct: Bought reagent; Fc part of the bought chimera not given

[18] = biological target: T16, rHuman IGF-1 sR (IGF-1 sR), CF (R&D Systems Cat#391-GR) (human, UniProt P08069 31-932); experiment: as above
T16 construct: Bought soluble receptor; also called insulin-like growth factor-1 soluble receptor; IGF-R1

[19] = biological target: T17, rHuman P-Cadherin/Fc Chimera, CF (R&D Systems Cat#861-PC) (human, UniProt P22223 108-654); experiment: as above
T17 construct: Bought reagent; also called CDH3; Fc part of the bought chimera not given

B1: Fab VH1-46_IGHD6-6*01_IGHJ1*01_S102A_S103P_S104Y_H111Y & L6_IGKJ1*01 (Fab, V domains shown)
VH: QVQLVQSGAEVKKPGASVKVSCKASGYTFTSYYMHWVRQAPGQGLEWMGIINPSGGSTSYAQKFQGRVTMTRDTSTSTVYMELSSLRSEDTAVYYCAREEYAPYSAEYFQYWGQGTLVTVSS
VL: not shown
notes: Fab made in E. coli; The heavy chain also carries CH1 with Flag and His tags from Plasmid A, and the light chain carries kappa CL from Plasmid C
Q: For B1, which ECL signal [1] is on record?
A: Its ECL signal is 470 ECL signal.

Q: What about the ECL signal [2] of the same binder?
A: Its ECL signal is 533 ECL signal.

Q: And the ECL signal [3]?
A: The ECL signal was 489 ECL signal.

B2: Fab VH1-46_IGHD6-6*01_IGHJ1*01_S102A_S103P_S104F & L6_IGKJ1*01_S31K (Fab, V domains shown)
VH: B1 VH with Y104F, Y111H
VL: EIVLTQSPATLSLSPGERATLSCRASQSVSKYLAWYQQKPGQAPRLLIYDASNRATGIPARFSGSGSGTDFTLTISSLEPEDFAVYYCQQRSNWPPWTFGQGTKVEIKR
notes: Fab
Q: B2 was tested. Which ECL signal [4] did it give?
A: Its ECL signal is 257 ECL signal.

Q: What about the ECL signal [5] of the same binder?
A: The ECL signal was 411 ECL signal.

Q: What about the ECL signal [6] of the same binder?
A: Its ECL signal is 574 ECL signal.

Q: And the ECL signal [7]?
A: Its ECL signal is 397 ECL signal.

Q: And the ECL signal [8]?
A: Its ECL signal is 257 ECL signal.

Q: What about the ECL signal [9] of the same binder?
A: The ECL signal was 355 ECL signal.

Q: And the ECL signal [10]?
A: The ECL signal was 262 ECL signal.

B3: Fab VH1-46_IGHD3-10*01_IGHJ4*01 & B3_IGKJ1*01 (Fab, V domains shown)
VH: QVQLVQSGAEVKKPGASVKVSCKASGYTFTSYYMHWVRQAPGQGLEWMGIINPSGGSTSYAQKFQGRVTMTRDTSTSTVYMELSSLRSEDTAVYYCAREYYYGSGSYYNDYFDYWGQGTLVTVSS
VL: not shown
notes: also called IGHV1-46*01
Q: What does the source list for B3?
A: ECL signal [11]: 3370; ECL signal [12]: 434; ECL signal [13]: 200; ECL signal [14]: 376; ECL signal [15]: 392; ECL signal [16]: 440; ECL signal [17]: 340; ECL signal [18]: 273; ECL signal [19]: 278
